According to US20190046600:

Legend:
Ac-DEVD-CHO = target: T1, Ac-DEVD-CHO
T1 chain: DEVD

[1] = target: T2, HILR-030 (cyclo-[Pro-Arg-Gly-Pro-Arg-Pro-Val-Trp-Trp-Gpa-Gpa-Trp-Trp-Gpa-Gpa-Trp-Trp])
T2 chain: PRGPRPVWWXXWWXXWW

B1: recombinant human caspase 3 enzyme (protein)
chain: SGISLDNSYKMDYPEMGLCIIINNKNFHKSTGMTSRSGTDVDAANLRETFRNLKYEVRNKNDLTREEIVELMRDVSKEDHSKRSSFVCVLLSHGEEGIIFGTNGPVDLKKITNFFRGDRCRSLTGKPKLFIIQACRGTELDCGIETDSGVDDDMACHKIPVEADFLYAYSTAPGYYSWRNSKDGSWFIQSLCAMLKQYADKLEFMHILTRVNRKVATEFESFSFDATFHAKKQIPCIVSMLTKELYFYH
- caspase-3 activity (Apo-ONE Homogeneous Caspase-3/7 assay, 2 h co-incubation with substrate or enzyme) (Ac-DEVD-CHO): Both DEVD-CHO and HILR-030 inhibited the caspase-3 activity in a dose-dependent fashion
- caspase-3 activity (Apo-ONE Homogeneous Caspase-3/7 assay, cleavage of Z-DEVD-R110, recombinant enzyme) (Ac-DEVD-CHO): Ac-DEVD-CHO inhibited the activity of caspase-3 in a dose-dependent manner, giving rise to IC50s within the expected range according to the inhibitor specification sheet
- caspase-3 activity (Apo-ONE Homogeneous Caspase-3/7 assay, 2 h co-incubation with substrate or enzyme) [1]: Both DEVD-CHO and HILR-030 inhibited the caspase-3 activity in a dose-dependent fashion
